Test results as given in patent US20080105961A1, “Ligands of the Molecule Fit (Agt-121) and their Pharmaceutical Use” (priority 2004, published 2008).
Marks after values point to notes of the source that are not given here. Each block holds one molecule with its values, some of them ahead of it.

How the values were obtained:
[1] = test system: melanocortin receptor; test: Feeding response to ICV injection of SHU9119 after three days of ODN or saline infusion; assay type: in vivo, Sprague Dawley rats; details: mean ± SEM
From the text: To further analyse the link between FIT and the melanocortin system, the feeding response of Sprague Dawley rats to an ICV injection of SHU9119, a melanocortin receptor antagonist and known feeding stimulator was investigated. After three days of FIT antisense treatment, jumbled oligonucleotide or saline infusion, responses were compared to rats receiving an ICV injection of saline vehicle rather than SHU9119.

[2] = biological target: T1, FIT-NP (FIT N-terminal plus proline-rich region) (Homo sapiens, UniProt Q9BQI5); test: Yeast two-hybrid screen of human brain cDNA library, bait FIT-NP; assay type: binding; details: for Number of clones: bait FIT-NP, human brain cDNA library, clones listed highest to lowest interacting strength; for strength of interaction with FIT: in yeast
T1 construct: expressed in transfected cells
T1 sequence (Q9BQI5 with tags, fused parts or gaps I33M/P40L/N43H/V56A/I186T/P191L/T195L/E211G/Q212H/I230V/T240A/N255T/I269V/G270A/P271T/S276A/V280A/L285P/N289S/A308T/K311T/T318A/S335T/T339A/P340S/N342I/A348T/L352P/P357S/T358A/DEL367-367/L371P/I397L/D402E/F403C/A409E/P432S/P434T/T437A/R454S/S455C/T456S): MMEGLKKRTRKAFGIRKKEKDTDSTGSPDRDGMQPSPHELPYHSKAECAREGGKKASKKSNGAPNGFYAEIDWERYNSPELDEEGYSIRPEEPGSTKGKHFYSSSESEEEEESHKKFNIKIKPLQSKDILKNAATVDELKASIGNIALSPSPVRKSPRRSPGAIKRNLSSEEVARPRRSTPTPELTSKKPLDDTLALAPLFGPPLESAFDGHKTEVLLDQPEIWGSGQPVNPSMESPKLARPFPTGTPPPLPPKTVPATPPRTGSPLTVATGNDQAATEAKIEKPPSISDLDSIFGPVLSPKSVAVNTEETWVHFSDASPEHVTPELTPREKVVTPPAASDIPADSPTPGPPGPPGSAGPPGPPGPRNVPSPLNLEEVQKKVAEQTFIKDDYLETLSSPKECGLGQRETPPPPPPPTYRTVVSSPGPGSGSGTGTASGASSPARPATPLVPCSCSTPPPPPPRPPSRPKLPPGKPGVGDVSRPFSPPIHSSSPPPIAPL
From the text: (§1) In order to perform these experiments, two truncated fragments of FIT were constructed to be used as baits in a yeast two-hybrid screen of a human brain cDNA library: one bait consisting of the N-terminal region plus the central proline-rich region, and the other bait consisting of the central proline-rich region alone. The inventors utilised a yeast two-hybrid system which incorporates modifications by Chevray and Nathans (1992), and Vidal et al. (1996) to screen a human brain cDNA library. FIT fragments were PCR amplified, purified and then cloned into an appropriate vector. Sense oligonucleotides for FIT-NP (5′-[…]-3′: SEQ ID NO:72), and FIT-PR (5′-[…]-3′: SEQ ID NO:73), with Sal1 restriction enzyme sites underlined, were used in conjunction with a common antisense oligonucleotide (5′-[…]-3′: SEQ ID NO:74), with the Not1 restriction enzyme site underlined.
(§2) Human brain cDNA inserts were prepared and cloned into the expression vector according to manufacturer's instructions.

[3] = biological target: T2, FIT-PR (FIT proline-rich region) (Homo sapiens, UniProt Q9BQI5); test: Yeast two-hybrid screen of human brain cDNA library, bait FIT-PR; assay type: binding; details: clones listed highest to lowest interacting strength
T2 construct: expressed in transfected cells
T2 sequence (Q9BQI5 with tags, fused parts or gaps N255T/I269V/G270A/P271T/S276A/V280A/L285P/N289S/A308T/K311T/T318A/S335T/T339A/P340S/N342I/A348T/L352P/P357S/T358A/DEL367-367/L371P/I397L/D402E/F403C/P432S/P434T/T437A/R454S/S455C/T456S): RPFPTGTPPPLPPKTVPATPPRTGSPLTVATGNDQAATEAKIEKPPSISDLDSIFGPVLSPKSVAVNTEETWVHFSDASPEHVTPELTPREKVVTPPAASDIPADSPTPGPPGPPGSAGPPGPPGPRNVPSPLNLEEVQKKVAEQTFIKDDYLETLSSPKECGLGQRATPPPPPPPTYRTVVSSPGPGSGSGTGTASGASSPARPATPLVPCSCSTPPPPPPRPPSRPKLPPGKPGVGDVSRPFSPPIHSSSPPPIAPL
From the text: as §1, with “To investigate the mechanism by which FIT regulates energy balance, neural proteins that interact with FIT were identified. In” for “In”
as §2

Molecule: SHU9119
Δ FI ([1]; 48 hr food intake post minus pre injection): 0.02 ± 0.01 g/g BW
48 hr FI post injection ([1]; food intake relative to body weight, after ICV SHU9119 or vehicle injection): 0.16 ± 0.01^a g/g BW
48 hr FI pre injection ([1]; food intake relative to body weight, during ICV infusion, before SHU9119 or vehicle injection): 0.14 ± 0.01 g/g BW

Molecule: MAD2: FIT interacting protein isolated from a human brain cDNA library
Number of clones [2]: 1

B1: α-2 subunit of the AP2 complex: FIT interacting protein isolated from a human brain cDNA library (protein)
chain: MPAVSKGDGMRGLAVFISDIRNCKSKEAEIKRINKELANIRSKFKGDKALDGYSKKKYVCKLLFIFLLGHDIDFGHMEAVNLLSSNRYTEKQIGYLFISVLVNSNSELIRLINNAIKNDLASRNPTFMGLALHCIASVGSREMAEAFAGEIPKVLVAGDTMDSVKQSAALCLLRLYRTSPDLVPMGDWTSRVVHLLNDQHLGVVTAATSLITTLAQKNPEEFKTSVSLAVSRLSRIVTSASTDLQDYTYYFVPAPWLSVKLLRLLQCYPPPDPAVRGRLTECLETILNKAQEPPKSKKVQHSNAKNAVLFEAISLIIHHDSEPNLLVRACNQLGQFLQHRETNLRYLALESMCTLASSEFSHEAVKTHIETVINALKTERDVSVRQRAVDLLYAMCDRSNAPQIVAEMLSYLETADYSIREEIVLKVAILAEKYAVDYTWYVDTILNLIRIAGDYVSEEVWYRVIQIVINRDDVQGYAAKTVFEALQAPACHENLVKVGGYILGEFGNLIAGDPRSSPLIQFHLLHSKFHLCSVPTRALLLSTYIKFVNLFPEVKPTIQDVLRSDSQLRNADVELQQRAVEYLRLSTVASTDILATVLEEMPPFPERESSILAKLKKKKGPSTVTDLEDTKRDRSVDVNGGPEPAPASTSAVSTPSPSADLLGLGAAPPAPAGPPPSSGGSGLLVDVFSDSASVVAPLAPGSEDNFARFVCKNNGVLFENQLLQIGLKSEFRQNLGRMFIFYGNKTSTQFLNFTPTLICSDDLQPNLNLQTKPVDPTVEGGAQVQQVVNIECVSDFTEAPVLNIQFRYGGTFQNVSVQLPITLNKFFQPTEMASQDFFQRWKQLSNPQQEVQNIFKAKHPMDTEVTKAKIIGFGSALLEEVDPNPANFVGAGIIHTKTTQIGCLLRLEPNLQAQMYRLTLRTSKEAVSQRLCELLSAQF
modifications: left off: large carriers
Number of clones [2]: 1
strength of interaction with FIT [2]: slightly lesser strength

B2: endophilin 1: FIT interacting protein isolated from a human brain cDNA library (protein)
chain: MSVAGLKKQFHKATQKVSEKVGGAEGTKLDDDFKEMERKVDVTSRAVMEIMTKTIEYLQPNPASRAKLSMINTMSKIRGQEKGPGYPQAEALLAEAMLKFGRELGDDCNFGPALGEVGEAMRELSEVKDSLDIEVKQNFIDPLQNLHDKDLREIQHHLKKLEGRRLDFDYKKKRQGKIPDEELRQALEKFDESKEIAESSMFNLLEMDIEQVSQLSALVQAQLEYHKQAVQILQQVTVRLEERIRQASSQPRREYQPKPRMSLEFPTGDSTQPNGGLSHTGTPKPSGVQMDQPCCRALYDFEPENEGELGFKEGDIITLTNQIDENWYEGMLHGHSGFFPINYVEILVALPH
modifications: left off: large carriers
Number of clones [3]: 12
Number of clones [2]: 14
strength of interaction with FIT [2]: very strongly

Further lines, results first:

Number of clones [2]: 1
strength of interaction with FIT [2]: slightly lesser strength
Molecule: β-arrestin 1: FIT interacting protein isolated from a human brain cDNA library

Number of clones [2]: 8
strength of interaction with FIT [2]: slightly lesser strength
B3: α-1 subunit of the AP2 complex: FIT interacting protein isolated from a human brain cDNA library (protein)
chain: MPAVSKGDGMRGLAVFISDIRNCKSKEAEIKRINKELANIRSKFKGDKALDGYSKKKYVCKLLFIFLLGHDIDFGHMEAVNLLSSNKYTEKQIGYLFISVLVNSNSELIRLINNAIKNDLASRNPTFMCLALHCIANVGSREMGEAFAADIPRILVAGDSMDSVKQSAALCLLRLYKASPDLVPMGEWTARVVHLLNDQHMGVVTAAVSLITCLCKKNPDDFKTCVSLAVSRLSRIVSSASTDLQDYTYYFVPAPWLSVKLLRLLQCYPPPEDAAVKGRLVECLETVLNKAQEPPKSKKVQHSNAKNAILFETISLIIHYDSEPNLLVRACNQLGQFLQHRETNLRYLALESMCTLASSEFSHEAVKTHIDTVINALKTERDVSVRQRAADLLYAMCDRSNAKQIVSEMLRYLETADYAIREEIVLKVAILAEKYAVDYSWYVDTILNLIRIAGDYVSEEVWYRVLQIVTNRDDVQGYAAKTVFEALQAPACHENMVKVGGYILGEFGNLIAGDPRSSPPVQFSLLHSKFHLCSVATRALLLSTYIKFINLFPETKATIQGVLRAGSQLRNADVELQQRAVEYLTLSSVASTDVLATVLEEMPPFPERESSILAKLKRKKGPGAGSALDDGRRDPSSNDINGGMEPTPSTVSTPSPSADLLGLRAAPPPAAPPASAGAGNLLVDVFDGPAAQPSLGPTPEEAFLSELEPPAPESPMALLADPAPAADPGPEDIGPPIPEADELLNKFVCKNNGVLFENQLLQIGVKSEFRQNLGRMYLFYGNKTSVQFQNFSPTVVHPGDLQTQLAVQTKRVAAQVDGGAQVQQVLNIECLRDFLTPPLLSVRFRYGGAPQALTLKLPVTINKFFQPTEMAAQDFFQRWKQLSLPQQEAQKIFKANHPMDAEVTKAKLLGFGSALLDNVDPNPENFVGAGIIQTKALQVGCLLRLEPNAQAQMYRLTLRTSKEPVSRHLCELLAQQF
modifications: left off: large carriers

Number of clones [3]: 2
Number of clones [2]: 7
strength of interaction with FIT [2]: very strongly
B4: endophilin 3: FIT interacting protein isolated from a human brain cDNA library (protein)
chain: MSVAGLKKQFHKASQLFSEKISGAEGTKLDDEFLDMERKIDVTNKVVAEILSKTTEYLQPNPAYRAKLGMLNTVSKIRGQVKTTGYPQTEGLLGDCMLKYGKELGEDSTFGNALIEVGESMKLMAEVKDSLDINVKQTFIDPLQLLQDKDLKEIGHHLKKLEGRRLDYDYKKKRVGKIPDEEVRQAVEKFEESKELAERSMFNFLENDVEQVSQLAVFIEAALDYHRQSTEILQELQSKLQMRISAASSVPRREYKPRPVKRSSSELNGVSTTSVVKTTGSNIPMDQPCCRGLYDFEPENQGELGFKEGDIITLTNQIDENWYEGMIHGESGFFPINYVEVIVPLPQ
modifications: left off: large carriers

Number of clones [2]: 1
B5: RNA-binding protein EWS: FIT interacting protein isolated from a human brain cDNA library (protein)
chain: MASTDYSTYSQAAAQQGYSAYTAQPTQGYAQTTQAYGQQSYGTYGQPTDVSYTQAQTTATYGQTAYATSYGQPPTGYTTPTAPQAYSQPVQGYGTGAYDTTTATVTTTQASYAAQSAYGTQPAYPAYGQQPAATAPTRPQDGNKPTETSQPQSSTGGYNQPSLGYGQSNYSYPQVPGSYPMQPVTAPPSYPPTSYSSTQPTSYDQSSYSQQNTYGQPSSYGQQSSYGQQSSYGQQPPTSYPPQTGSYSQAPSQYSQQSSSYGQQSSFRQDHPSSMGVYGQESGGFSGPGENRSMSGPDNRGRGRGGFDRGGMSRGGRGGGRGGMGSAGERGGFNKPGGPMDEGPDLDLGPPVDPDEDSDNSAIYVQGLNDSVTLDDLADFFKQCGVVKMNKRTGQPMIHIYLDKETGKPKGDATVSYEDPPTAKAAVEWFDGKDFQGSKLKVSLARKKPPMNSMRGGLPPREGRGMPPPLRGGPGGPGGPGGPMGRMGGRGGDRGGFPPRGPRGSRGNPSGGGNVQHRAGDWQCPNPGCGNQNFAWRTECNQCKAPKPEGFLPPPFPPPGGDRGRGGPGGMRGGRGGLMDRGGPGGMFRGGRGGDRGGFRGGRGMDRGGFGGGRRGGPGGPPGPLMEQMGGRRGGRGGPGKMDKGEHRQERRDRPY
modifications: left off: large carriers
